Source: the supplement of paper PMC9112550, “Optimization of the antimicrobial peptide Bac7 by deep mutational scanning” (BMC Biology, 2022)

Tested on: Escherichia coli TOP10
Test: shrunken log2 fold change of peptide-encoding DNA abundance (4.5 h post-induction vs induction); higher = less antimicrobial activity (less host growth inhibition)
Conditions: time post-induction: 4.5 h; library: site-saturation at positions 5, 18, 19, 20
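Also: peptides expressed intracellularly from a pBAD plasmid library in pooled LB shake-flask culture, induced with 0.3% L-arabinose, DNA abundance read by NGS, three biological replicates, DESeq2 with apeglm shrinkage.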

## RRIRQRPPRLPRPRPRPSDEPRP
  shrunken log2 fold change: -0.275

## RRIRMRPPRLPRPRPRPPWLPRP
  shrunken log2 fold change: 0.568

## RRIRERPPRLPRPRPRPVLLPRP
  shrunken log2 fold change: -0.388

## RRIRWRPPRLPRPRPRPCKDPRP
  shrunken log2 fold change: -0.381

## RRIRDRPPRLPRPRPRPTMRPRP
  shrunken log2 fold change: 1.3

## RRIRCRPPRLPRPRPRPGYFPRP
  shrunken log2 fold change: -0.394

## RRIRCRPPRLPRPRPRPFAPPRP
  shrunken log2 fold change: 0.229

## RRIRRRPPRLPRPRPRPGRNPRP
  shrunken log2 fold change: -0.000492

## RRIRMRPPRLPRPRPRPGMWPRP
  shrunken log2 fold change: 0.292

## RRIRKRPPRLPRPRPRPEIDPRP
  shrunken log2 fold change: 2.84

## RRIRIRPPRLPRPRPRPIWWPRP
  shrunken log2 fold change: 0.0713

## RRIRLRPPRLPRPRPRPAGLPRP
  shrunken log2 fold change: 0.102

## RRIRVRPPRLPRPRPRPKGPPRP
  shrunken log2 fold change: 0.36

## RRIRTRPPRLPRPRPRPLNDPRP
  shrunken log2 fold change: -0.192

## RRIRERPPRLPRPRPRPAMHPRP
  shrunken log2 fold change: 0.0193

## RRIRVRPPRLPRPRPRPGAQPRP
  shrunken log2 fold change: 0.00624

## RRIRMRPPRLPRPRPRPPDQPRP
  shrunken log2 fold change: 2.01

## RRIRSRPPRLPRPRPRPVLEPRP
  shrunken log2 fold change: 0.0953

## RRIRPRPPRLPRPRPRPLYGPRP
  shrunken log2 fold change: 0.0853

## RRIRVRPPRLPRPRPRPRPTPRP
  shrunken log2 fold change: 0.268

## RRIRCRPPRLPRPRPRPDREPRP
  shrunken log2 fold change: 0.0186

## RRIRERPPRLPRPRPRPTMEPRP
  shrunken log2 fold change: -0.116

## RRIRTRPPRLPRPRPRPDLSPRP
  shrunken log2 fold change: 0.057

## RRIRFRPPRLPRPRPRPVMVPRP
  shrunken log2 fold change: -1.14

## RRIRERPPRLPRPRPRPAQIPRP
  shrunken log2 fold change: -0.0282

## RRIRYRPPRLPRPRPRPMYSPRP
  shrunken log2 fold change: -0.018

## RRIRHRPPRLPRPRPRPRLYPRP
  shrunken log2 fold change: 0.114

## RRIRPRPPRLPRPRPRPFVWPRP
  shrunken log2 fold change: -0.0428

## RRIRARPPRLPRPRPRPPYQPRP
  shrunken log2 fold change: 0.171

## RRIRFRPPRLPRPRPRPKRCPRP
  shrunken log2 fold change: 0.383

## RRIRFRPPRLPRPRPRPFSEPRP
  shrunken log2 fold change: -0.0573

## RRIRRRPPRLPRPRPRPKSPPRP
  shrunken log2 fold change: 0.189

## RRIRSRPPRLPRPRPRPRWPPRP
  shrunken log2 fold change: 0.553

## RRIRGRPPRLPRPRPRPFLFPRP
  shrunken log2 fold change: 0.39

## RRIRYRPPRLPRPRPRPIGTPRP
  shrunken log2 fold change: -0.1

## RRIRGRPPRLPRPRPRPRYDPRP
  shrunken log2 fold change: -0.057

## RRIRARPPRLPRPRPRPQLMPRP
  shrunken log2 fold change: 0.125

## RRIRLRPPRLPRPRPRPDAAPRP
  shrunken log2 fold change: 2.66

## RRIRSRPPRLPRPRPRPNQNPRP
  shrunken log2 fold change: -0.274

## RRIRKRPPRLPRPRPRPQWTPRP
  shrunken log2 fold change: 0.0894

## RRIRQRPPRLPRPRPRPVCHPRP
  shrunken log2 fold change: -0.13

## RRIRGRPPRLPRPRPRPKKRPRP
  shrunken log2 fold change: 0.817

## RRIRTRPPRLPRPRPRPNIPPRP
  shrunken log2 fold change: -0.593

## RRIRLRPPRLPRPRPRPKKEPRP
  shrunken log2 fold change: -0.0307

## RRIRCRPPRLPRPRPRPEFQPRP
  shrunken log2 fold change: 0.0126

## RRIRARPPRLPRPRPRPKSIPRP
  shrunken log2 fold change: -0.078

## RRIRDRPPRLPRPRPRPCMNPRP
  shrunken log2 fold change: 0.119

## RRIRMRPPRLPRPRPRPWMKPRP
  shrunken log2 fold change: -0.234

## RRIRWRPPRLPRPRPRPDKWPRP
  shrunken log2 fold change: -0.161

## RRIRNRPPRLPRPRPRPVTTPRP
  shrunken log2 fold change: 0.171

## RRIRIRPPRLPRPRPRPFRRPRP
  shrunken log2 fold change: 0.017

## RRIRCRPPRLPRPRPRPNTVPRP
  shrunken log2 fold change: -0.768

## RRIRKRPPRLPRPRPRPSPQPRP
  shrunken log2 fold change: 0.219

## RRIRVRPPRLPRPRPRPSCTPRP
  shrunken log2 fold change: -0.175

## RRIRNRPPRLPRPRPRPCTNPRP
  shrunken log2 fold change: 0.00408

## RRIRCRPPRLPRPRPRPPMVPRP
  shrunken log2 fold change: -0.147

## RRIRDRPPRLPRPRPRPWQAPRP
  shrunken log2 fold change: -0.0194

## RRIRTRPPRLPRPRPRPQFKPRP
  shrunken log2 fold change: 2.23

## RRIRLRPPRLPRPRPRPAIDPRP
  shrunken log2 fold change: -0.283

## RRIRMRPPRLPRPRPRPMAKPRP
  shrunken log2 fold change: 0.245

## RRIRERPPRLPRPRPRPDICPRP
  shrunken log2 fold change: -0.553

## RRIRSRPPRLPRPRPRPEIYPRP
  shrunken log2 fold change: -0.295

## RRIRLRPPRLPRPRPRPYHDPRP
  shrunken log2 fold change: -0.131

## RRIRCRPPRLPRPRPRPRQGPRP
  shrunken log2 fold change: 0.436

## RRIRPRPPRLPRPRPRPGVHPRP
  shrunken log2 fold change: -0.0724

## RRIRHRPPRLPRPRPRPDGIPRP
  shrunken log2 fold change: -0.0529

## RRIRERPPRLPRPRPRPPRPPRP
  shrunken log2 fold change: 0.64

## RRIRARPPRLPRPRPRPAQVPRP
  shrunken log2 fold change: 0.617

## RRIRVRPPRLPRPRPRPPHEPRP
  shrunken log2 fold change: 0.42

## RRIRPRPPRLPRPRPRPWKVPRP
  shrunken log2 fold change: -0.0967

## RRIRLRPPRLPRPRPRPIMEPRP
  shrunken log2 fold change: -0.193

## RRIRARPPRLPRPRPRPRMTPRP
  shrunken log2 fold change: 1.04

## RRIRWRPPRLPRPRPRPQIYPRP
  shrunken log2 fold change: -0.000758

## RRIRNRPPRLPRPRPRPTKPPRP
  shrunken log2 fold change: 0.24

## RRIRIRPPRLPRPRPRPYRPPRP
  shrunken log2 fold change: -0.0527

## RRIRVRPPRLPRPRPRPWDRPRP
  shrunken log2 fold change: 0.0372

## RRIRRRPPRLPRPRPRPKFRPRP
  shrunken log2 fold change: -0.0588

## RRIRGRPPRLPRPRPRPPKRPRP
  shrunken log2 fold change: 0.701

## RRIRTRPPRLPRPRPRPKIPPRP
  shrunken log2 fold change: -0.21

## RRIRARPPRLPRPRPRPFYEPRP
  shrunken log2 fold change: -0.125

## RRIRVRPPRLPRPRPRPCCMPRP
  shrunken log2 fold change: -0.181

## RRIRQRPPRLPRPRPRPRVQPRP
  shrunken log2 fold change: 0.527

## RRIRYRPPRLPRPRPRPCHAPRP
  shrunken log2 fold change: -0.702

## RRIRNRPPRLPRPRPRPMAHPRP
  shrunken log2 fold change: -0.0456

## RRIRWRPPRLPRPRPRPKCEPRP
  shrunken log2 fold change: 0.359

## RRIRSRPPRLPRPRPRPVIRPRP
  shrunken log2 fold change: -0.213

## RRIRQRPPRLPRPRPRPWLPPRP
  shrunken log2 fold change: -0.181

## RRIRKRPPRLPRPRPRPHYMPRP
  shrunken log2 fold change: -0.0279

## RRIRQRPPRLPRPRPRPRGRPRP
  shrunken log2 fold change: 0.256

## RRIRARPPRLPRPRPRPEIYPRP
  shrunken log2 fold change: -0.0195

## RRIRRRPPRLPRPRPRPLRKPRP
  shrunken log2 fold change: 0.793

## RRIRRRPPRLPRPRPRPLYTPRP
  shrunken log2 fold change: -0.132

## RRIRHRPPRLPRPRPRPCWGPRP
  shrunken log2 fold change: -0.137

## RRIRSRPPRLPRPRPRPKKIPRP
  shrunken log2 fold change: 0.139

## RRIRDRPPRLPRPRPRPHRNPRP
  shrunken log2 fold change: -0.0138

## RRIRLRPPRLPRPRPRPSKGPRP
  shrunken log2 fold change: -0.123

## RRIRFRPPRLPRPRPRPHIIPRP
  shrunken log2 fold change: -0.879

## RRIRHRPPRLPRPRPRPVCNPRP
  shrunken log2 fold change: -0.761

## RRIRMRPPRLPRPRPRPSIFPRP
  shrunken log2 fold change: 0.00177

## RRIRPRPPRLPRPRPRPIAYPRP
  shrunken log2 fold change: -0.0833

## RRIRPRPPRLPRPRPRPHIGPRP
  shrunken log2 fold change: 0.0387

## RRIRARPPRLPRPRPRPETNPRP
  shrunken log2 fold change: 1.01

## RRIRYRPPRLPRPRPRPNYIPRP
  shrunken log2 fold change: -1.2

## RRIRARPPRLPRPRPRPHMFPRP
  shrunken log2 fold change: 0.0892

## RRIRARPPRLPRPRPRPMPLPRP
  shrunken log2 fold change: -0.0326

## RRIRKRPPRLPRPRPRPHACPRP
  shrunken log2 fold change: 0.0691

## RRIRMRPPRLPRPRPRPGGHPRP
  shrunken log2 fold change: 0.516

## RRIRARPPRLPRPRPRPFQCPRP
  shrunken log2 fold change: 0.0143

## RRIRHRPPRLPRPRPRPAWKPRP
  shrunken log2 fold change: -0.0109

## RRIRNRPPRLPRPRPRPYAHPRP
  shrunken log2 fold change: -0.176

## RRIRDRPPRLPRPRPRPTVCPRP
  shrunken log2 fold change: 0.662

## RRIRSRPPRLPRPRPRPYVYPRP
  shrunken log2 fold change: -0.852

## RRIRARPPRLPRPRPRPMLYPRP
  shrunken log2 fold change: 0.249

## RRIRPRPPRLPRPRPRPAYRPRP
  shrunken log2 fold change: -0.0399

## RRIRLRPPRLPRPRPRPGIIPRP
  shrunken log2 fold change: -0.116

## RRIRFRPPRLPRPRPRPCVKPRP
  shrunken log2 fold change: -0.123

## RRIRWRPPRLPRPRPRPLLLPRP
  shrunken log2 fold change: 0.152

## RRIRCRPPRLPRPRPRPQACPRP
  shrunken log2 fold change: 0.00494

## RRIRQRPPRLPRPRPRPVREPRP
  shrunken log2 fold change: -0.00762

## RRIRKRPPRLPRPRPRPHCWPRP
  shrunken log2 fold change: 0.17

## RRIRQRPPRLPRPRPRPEDKPRP
  shrunken log2 fold change: 0.0591

## RRIRQRPPRLPRPRPRPVSAPRP
  shrunken log2 fold change: 0.104

## RRIRTRPPRLPRPRPRPKFNPRP
  shrunken log2 fold change: -0.375

## RRIRERPPRLPRPRPRPWSLPRP
  shrunken log2 fold change: -0.0112

## RRIRARPPRLPRPRPRPMMMPRP
  shrunken log2 fold change: 0.246
